Blank lines part the entries; values can stand above or below the substance they belong to.
What was measured:
[1] = molecular target: Ustilago maydis Jps1, full length (Jps1^1-609) (Ustilago maydis); assay: mass photometry
[2] = molecular target: Ustilago maydis Jps1, full length (Jps1^1-609) (Ustilago maydis); assay: SEC-MALS
[3] = molecular target: Ustilago maydis Jps1 lacking the unstructured C-terminus (Jps1^1-484) (Ustilago maydis); assay: SAXS
[4] = molecular target: Ustilago maydis Jps1 lacking the unstructured C-terminus (Jps1^1-484) (Ustilago maydis); assay: SEC-MALS
[5] = molecular target: Sporisorium reilianum Jps1 (SrJps1) (Sporisorium reilianum); assay: mass photometry
[6] = molecular target: Sporisorium reilianum Jps1 (SrJps1) (Sporisorium reilianum); assay: SEC-MALS
[7] = molecular target: Hebeloma cylindrosporum Jps1 (HcJps1) (Hebeloma cylindrosporum); assay: SEC-MALS
[8] = molecular target: Ustilago maydis Jps1^1-484 M^5 (alanine replacements of the basic cluster R162, R163, R164) (Ustilago maydis); assay: SEC-MALS

Substance: Ustilago maydis Jps1, full length (Jps1^1-609) (natural protein)
percent of particles in the dimer fraction (125 kDa) [1]: 69% | percent of particles in the monomer fraction (64 kDa) [1]: 9% | stoichiometry N [1]: 2 | stoichiometry N [2]: 2

Substance: Ustilago maydis Jps1 lacking the unstructured C-terminus (Jps1^1-484) (domain or fragment)
stoichiometry N [3]: 2 | stoichiometry N [4]: 2

Substance: Hebeloma cylindrosporum Jps1 (HcJps1) (natural protein)
stoichiometry N [7]: 2

Other lines, results leading:

stoichiometry N [5]: 2 | stoichiometry N [6]: 2
Substance: Sporisorium reilianum Jps1 (SrJps1) (natural protein)

stoichiometry N [8]: 2
Substance: Ustilago maydis Jps1^1-484 M^5 (alanine replacements of the basic cluster R162, R163, R164) (domain or fragment)
